The text below walks through data of article PMC3616705 (Nucleic Acids Research, 2013).

The data set “AUC” deals with the molecule itself. Kind of data set: AUC.
Data set [1] concerns the target Los1p·Gsp1p export complex (GST-Los1p together with GST-Gsp1p on glutathione resin) (yeast, UniProt P33418 1-1100; P32835 1-219). Kind of data set: pull-down.

B1: Cex1p9-358 (N-terminal kinase-like domain of Cex1p), N-terminal His tag (domain or fragment, Saccharomyces cerevisiae, UniProt Q12453 9-358, looked up)
chain: SISNFQFPYTIEETAITETALWQCFDGTRKADSLPVTVFKAKRSPENESLILNAVHKSKILKIPGLCTVLETFDSDPQSTFIVTERVVPFPWDNLGSLSQNKFGVELGISQLLATLGFLKNFVLGTLSKDSVFINIKGEWVLFGLELCSSKEGLSAFEFASRARSYYNIIGSQLPCEDPNTIDSMGLGLLIKSLMAPSCLPKDWIVNVNMISDGKITIENFRKRLENTETWRSNPLINFYQELRELHIKDPQGKLVVMSNLENLYLESREIFRNLTPGMIENFIIPELCEIIKLLMTQSISSAASPIGMNFNASHKLVPFLAIVLDLTSETNTFPVGFNDLITQSFKLPD
Regarding B1, the stoichiometry N (as a rule, the number of molecules, sites or subunits per partner or assembly) in the data set “AUC” turned out to be 2. Moreover, the binding result in data set [1] was “binds”.

B2: Cex1pΔC-SER (residues 9-564, E535A/K536A/E537A) with N-terminal His tag, as used in the pull-down (domain or fragment, Saccharomyces cerevisiae, UniProt Q12453 9-564, looked up)
chain: SISNFQFPYTIEETAITETALWQCFDGTRKADSLPVTVFKAKRSPENESLILNAVHKSKILKIPGLCTVLETFDSDPQSTFIVTERVVPFPWDNLGSLSQNKFGVELGISQLLATLGFLKNFVLGTLSKDSVFINIKGEWVLFGLELCSSKEGLSAFEFASRARSYYNIIGSQLPCEDPNTIDSMGLGLLIKSLMAPSCLPKDWIVNVNMISDGKITIENFRKRLENTETWRSNPLINFYQELRELHIKDPQGKLVVMSNLENLYLESREIFRNLTPGMIENFIIPELCEIIKLLMTQSISSAASPIGMNFNASHKLVPFLAIVLDLTSETNTFPVGFNDLITQSFKLPDRQVRFLLLIYLPKLIGPLSKSEISSRIYPHFIQGLTDSDATLRLQTLKTIPCIVSCLTERQLNNELLRFLAKTQVDSDVEIRTWTVIIISKISTILSTSVGNRSNILATAFTKSLKDPQVKPRLAALYGLEKSIELFDVNTIANKILTVIAPGLLDKSPIVRGRAKILFEEYLEKLAAAAQLIQTNDSTADSEDVKDIDFENYGCD
Turning to B2, the binding result in data set [1] is on record as “binds”.

B3: Cex1pΔC-SER (residues 9-564, E535A/K536A/E537A), His tag removed (domain or fragment, Saccharomyces cerevisiae, UniProt Q12453 9-564, looked up)
chain: SISNFQFPYTIEETAITETALWQCFDGTRKADSLPVTVFKAKRSPENESLILNAVHKSKILKIPGLCTVLETFDSDPQSTFIVTERVVPFPWDNLGSLSQNKFGVELGISQLLATLGFLKNFVLGTLSKDSVFINIKGEWVLFGLELCSSKEGLSAFEFASRARSYYNIIGSQLPCEDPNTIDSMGLGLLIKSLMAPSCLPKDWIVNVNMISDGKITIENFRKRLENTETWRSNPLINFYQELRELHIKDPQGKLVVMSNLENLYLESREIFRNLTPGMIENFIIPELCEIIKLLMTQSISSAASPIGMNFNASHKLVPFLAIVLDLTSETNTFPVGFNDLITQSFKLPDRQVRFLLLIYLPKLIGPLSKSEISSRIYPHFIQGLTDSDATLRLQTLKTIPCIVSCLTERQLNNELLRFLAKTQVDSDVEIRTWTVIIISKISTILSTSVGNRSNILATAFTKSLKDPQVKPRLAALYGLEKSIELFDVNTIANKILTVIAPGLLDKSPIVRGRAKILFEEYLEKLAAAAQLIQTNDSTADSEDVKDIDFENYGCD
For B3, the “stoichiometry N” value in “AUC” was 2.

B4: wild-type, full-length Cex1p (cytoplasmic export protein), N-terminal His tag (natural protein, Saccharomyces cerevisiae, UniProt Q12453 1-761, looked up)
chain: MNFSSIFKSISNFQFPYTIEETAITETALWQCFDGTRKADSLPVTVFKAKRSPENESLILNAVHKSKILKIPGLCTVLETFDSDPQSTFIVTERVVPFPWDNLGSLSQNKFGVELGISQLLATLGFLKNFVLGTLSKDSVFINIKGEWVLFGLELCSSKEGLSAFEFASRARSYYNIIGSQLPCEDPNTIDSMGLGLLIKSLMAPSCLPKDWIVNVNMISDGKITIENFRKRLENTETWRSNPLINFYQELRELHIKDPQGKLVVMSNLENLYLESREIFRNLTPGMIENFIIPELCEIIKLLMTQSISSAASPIGMNFNASHKLVPFLAIVLDLTSETNTFPVGFNDLITQSFKLPDRQVRFLLLIYLPKLIGPLSKSEISSRIYPHFIQGLTDSDATLRLQTLKTIPCIVSCLTERQLNNELLRFLAKTQVDSDVEIRTWTVIIISKISTILSTSVGNRSNILATAFTKSLKDPQVKPRLAALYGLEKSIELFDVNTIANKILTVIAPGLLDKSPIVRGRAKILFEEYLEKLEKEAQLIQTNDSTADSEDVKDIDFENYGCDEEDMNKEDNLLAAQFLNNLRLNSPSATTPSNITESEIDSAQDGSGWDDLSDTDGFITNGTTESFDETTNPVTTASTPKLFGKPIKINKSWNDELNDDGWIQDESGPSKVPQKHTRPQNSTLAKSIAPSSRLSIKKKKTTILAPRNIASNSTVTTKSSLSNKTARSKPISSIRGSVTKKGNVDGWDDDGDSDSWDTNW
Turning to B4, the “stoichiometry N” value in “AUC” was 2. The binding result in data set [1] was “binds”.
